Data: publication PMC2197187 (Acta Crystallographica Section F: Structural Biology and …, 2006)

Assays:
[1] = molecular target: the molecule itself; assay: mass spectrometry
[2] = molecular target: the molecule itself; assay: SEC

B1: Sso6206, recombinant, His tag cleaved by TEV protease (natural protein, Sulfolobus solfataricus P2)
chain: GAMAIRRLVLDVLKPIRGTSIVDLAERISKLDGVEGVNISVTDMDVETMGLMIIIEGTSLNFDDIRKMLEEEGCAIHSIDEVVSGNRIIEGKIKDDL
- stoichiometry N [1]: ≤ 6
- stoichiometry N [2]: > 10 monomers per protomer
